This passage reports K half results from doi:10.1101/2020.11.10.376558.

The test system of the series is GST-N571 (CIZ1 N-terminal fragment with PLD1 and PLD2) (Mus musculus). The experiment in a line: EMSA.

Take Xist repeat A sense: the K half was 200 nM. Under Xist repeat E proximal (sense) stands 100 nM.
